Data on one protein can be found in publication PMC2650471, “The structure of NMB1585, a MarR-family regulator from Neisseria meningitidis” (Acta Crystallographica Section F: Structural Biology and …, 2009).

As a reminder, the stoichiometry N is the number of molecules, sites or subunits per partner or assembly.

The data set concerns the molecule itself. Briefly: crystal structure; selenomethionine-labelled NMB1585, 9.7 mg/ml in 20 mM Tris pH 7.5, 200 mM NaCl, 1 mM TCEP; crystals from 0.1 M HEPES pH 7.5, 25% PEG 3350, 0.2 M ammonium chloride; space group P2(1), two subunits per asymmetric unit; 2.1 Å.

B1: NMB1585, MarR-family transcription factor from Neisseria meningitidis (natural protein)
chain: MNQLDQLGTRINLICNVFDKWIGQQDLNYNLFAVLYTLATEGSRTQKHIGEKWSLPKQTVSGVCKTLAGQGLIEWQEGEQDRRKRLLSLTETGKAYAAPLTESAQEFSDKVFATFGDKRTTRLFADLDALAEVMEKTISENKK
modifications: selenomethionine-labelled (selenomethionine in place of methionine)
notes: NMB1585, MarR-family regulator, Neisseria meningitidis strain MC58; amplified from genomic DNA with primers that run from the ATG start codon to the stop codon; cloned into pDEST17 with an N-terminal His tag and a 3C protease cleavage site; also called meningococcal MarR; source: tag removed with 3C protease; not shown: His tag, N-terminal, cleaved
Take B1: the “stoichiometry N” value is 2.
